In patent publication US20200223906A1 (Adimab, published 2020):

Assays:
[1] = target: RSV F protein of subtype B (18537) on recombinant mKate-RSV (respiratory syncytial virus subtype B …, UniProt P13843 26-574); assay: cell-based or functional assay
[2] = target: RSV F protein of subtype A (strain A2) on recombinant mKate-RSV (respiratory syncytial virus subtype A …, UniProt P03420 26-574); assay: cell-based or functional assay
[3] = target: RSV F protein of subtype B (18537) on recombinant mKate-RSV virus (Respiratory syncytial virus subtype B …, UniProt P13843 26-574); assay: cell-based or functional assay
[4] = target: RSV F protein of subtype A (strain A2) on recombinant mKate-RSV virus (Respiratory syncytial virus subtype A …, UniProt P03420 26-574); assay: cell-based or functional assay
[5] = target: T1, RSV F subtype B, furin-cleaved ectodomain stabilized in the prefusion conformation (DS-Cav1) (Respiratory syncytial virus subtype B); assay: BLI, IgG on AHQ sensor, 100 nM antigen
T1 construct: extracellular domain; Trimeric soluble antigen; also called Prefusion subtype B

[6] = target: T2, RSV F subtype A, furin-cleaved ectodomain stabilized in the prefusion conformation (DS-Cav1) (Respiratory syncytial virus subtype A, UniProt P03420 26-524); assay: BLI, IgG on AHQ sensor, 100 nM antigen
T2 construct: extracellular domain; Trimeric soluble antigen; also called Prefusion subtype A

Row | Binder | Neut IC50 subtype B [1] [µg/mL] | Neut IC50 subtype A [2] [µg/mL] | Neut IC50 (µg/ml) subtype B [3] [µg/mL] | Neut IC50 (µg/ml) subtype A [4] [µg/mL] | Kd [5] [nM] | Kd [6] [nM]
1 | ADI-18979 (antibody, V domains shown) VH: EVQLLESGAEVKKPGASVKISCKASGYIFTSYGVSWVRQAPGQGLKWMGWISGYNGNTYYDQKFQGRVTMTTDTSTNTAYMELRSLTSDDTAVYYCARDSFSETGTGFPDFWGQGTLVTVSS VL: EIVLTQSPLSLPVTLGQPASISCRSSQSLEYSDGNTYLNWFQQRPGQSPRRLIYKVSNRDSGVPDRFSGSGSGTDFTLKISRVEAEDVGVYYCMQATHRPRTFGQGTKVDIK | 0.031 | 0.012 |  |  |  | 
2 | ADI-18920 (antibody, V domains shown, full-length IgG from yeast; also called Antibody Number 274; Ab # 274) VH: EVQLLESGGGVVQPGRSLRLSCAASGFTFSSYAMHWVRQTPDKGLEWVALISDDGRNEYYADSVQGRFTISRDKSKNTLHLEMNSLRAEDTAVYYCAKVRNEAWELLGNDDALDVWGQGTMVTVSS VL: QSVLTQPPSVSAAPGQKVTISCSGTSFNIGSNYVSWYQLLPGTAPKLLIFDNYKRPSGIPDRFSGSWSGTSATLAISGLQTGDEAEYFCGTWDTSLRAGVFGGGTKLTVL |  |  | 0.049 | 0.041 | 0.0977 | 0.678
3 | ADI-18915 (antibody, V domains shown, full-length IgG from yeast; also called Antibody Number 269; Ab # 269) VH: QVQLVQSGGGLVKPGGSLRLSCAASGFTFSKAWMNWVRQAPGKGLEWVGRIRSKTDGGTADYAAPVKGRFTMSRDDSKNTLYLQMNSLKTEDTAVYYCATDSRRLYDSRGFYSSAFDVWGQGTTVTVSS VL: QSVLTQPPSVSGAPGQRVTISCTGSSSNIGAGYDVHWYQHLPGTAPKVLIYGNNNRPSGVPDRFSGSKSGTSASLAITGLQAEDEADYYCQSYDDSLTGWVFGGGTKVTVL |  |  | 0.021 | 1.2 | 0.421 | 28.1
4 | ADI-18919 (antibody, V domains shown, full-length IgG from yeast) VH: QVQLQESGPGLEKPSQTLSLTCTVSRGSIRIGGYFWSWIRQHPGKGLEWLGYISNDGATDYNPSLRSRLAISADTSKNQFSLTLRSVTAADTAIYYCARTSYAGRMLDRWGQGILVTVSS VL: DIRVTQSPVSLPVTPGEPASISCRSSQSLLHSNGNNYLDWYLQKPGQSPQLLIYMGSYRASGVPDRFSGSGSGTDFTLKISRVEAEDVGVYYCMQGLQIPWTFGQGTKLEIK |  |  | 0.261 | 0.123 | 0.163 | 0.202
5 | ADI-18926 (antibody, V domains shown, full-length IgG from yeast; also called Antibody Number 280; Ab # 280) VH: EVQLVESGAEVKKPGASVKVSCQTSGYTFSHFGVTWIRQAPGQGLEWLGWISAYNGNTDYADKLQGRLTMTTDTSTNTAYMELRSLRSDDTAVYYCARDPPASAAAMLDYWGQGTLVTVSS VL: DIVMTQSPLSLAVTLGQPASISCKSSQGLEYTDGNTYLSWFQQRPGQSPRRLIYKISNRDSGVPDRFSGSGSGTDFTLRISRVEAEDVGVYYCMQGTHGRGISFGPGTKVDIK |  |  | 0.092 | 0.023 | 0.25 | 0.252
6 | ADI-18978 (antibody, V domains shown) VH: EVQLVESGGGVVQPGRSLRLSCEASGFTFSSFSMHWVRQAPGKGLEWVAVILYDGSNQYYADSVKGRFTISRDNSKNTLYLQMNTLRAEDTAMYYCAKSSSSHVNSRQDKWGQGTLVTVSS VL: EIVLTQSPSTLSASVGDRVTITCRASQSISRWLAWYQQKPGEAPKLLIHTASTLESGVPSRFSGSGSGTEFTLTINSLQPDDLATYYCQQYYNWWTFGQGTKVEIK | > 10 | > 10 |  |  |  | 
7 | ADI-18923 (antibody, V domains shown, full-length IgG from yeast) VH: EVQLLESGGGLVKPGGSLRLSCAASGFTFSSYSMNWVRQAPGKGLEWVSSISSSSSYIYYADSVKGRFTISRDNAKNSLYLQMNSLRAEDTAVYYCARDWPNSSSSPNWFDPWGQGTLVTVSS VL: QSVLTQPPSVSGAPGQRVTISCTGSSSNIGAGYDVHWYQQLPGTAPKLLIYGNSNRPSGVPDRFSGSKSGTSASLAITGLQAEDEADYYCQSYDSSLSGFYVFGTGTKLTVL |  |  | 0.147 | 0.078 | 1.79 | 0.517
